The values that follow come from US20190185537A1 (AstraZeneca / MedImmune, published 2019).

T1: human glucose-dependent insulinotropic peptide (gastric inhibitory polypeptide) receptor (human) (UniProt P48546)
T1 sequence (looked up): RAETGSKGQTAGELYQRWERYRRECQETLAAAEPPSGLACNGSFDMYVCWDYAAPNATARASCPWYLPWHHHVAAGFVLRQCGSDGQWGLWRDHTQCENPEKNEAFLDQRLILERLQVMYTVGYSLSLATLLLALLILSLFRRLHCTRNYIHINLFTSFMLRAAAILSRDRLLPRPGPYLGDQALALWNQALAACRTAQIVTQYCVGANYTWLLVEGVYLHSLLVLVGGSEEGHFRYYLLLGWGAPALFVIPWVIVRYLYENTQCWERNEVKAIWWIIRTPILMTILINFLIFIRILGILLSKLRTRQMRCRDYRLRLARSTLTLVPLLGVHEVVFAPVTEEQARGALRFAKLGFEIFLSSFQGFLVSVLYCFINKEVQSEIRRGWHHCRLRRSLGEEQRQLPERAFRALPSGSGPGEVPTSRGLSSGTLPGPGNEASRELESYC

B1: g728 (peptide)
peptide: HSQGTFTSDYSK([γGlu-Palmitoyl])YLDSERARDFVAWLVAGG-NH2
modifications: N-terminus assumed
SMILES: CCCCCCCCCCCCCCCC(=O)N[C@@H](CCC(=O)NCCCC[C@H](NC(=O)[C@H](CO)NC(=O)[C@H](Cc1ccc(O)cc1)NC(=O)[C@H](CC(=O)O)NC(=O)[C@H](CO)NC(=O)[C@@H](NC(=O)[C@H](Cc1ccccc1)NC(=O)[C@@H](NC(=O)CNC(=O)[C@H](CCC(N)=O)NC(=O)[C@H](CO)NC(=O)[C@@H](N)Cc1c[nH]cn1)[C@@H](C)O)[C@@H](C)O)C(=O)N[C@@H](Cc1ccc(O)cc1)C(=O)N[C@@H](CC(C)C)C(=O)N[C@@H](CC(=O)O)C(=O)N[C@@H](CO)C(=O)N[C@@H](CCC(=O)O)C(=O)N[C@@H](CCCNC(=N)N)C(=O)N[C@@H](C)C(=O)N[C@@H](CCCNC(=N)N)C(=O)N[C@@H](CC(=O)O)C(=O)N[C@@H](Cc1ccccc1)C(=O)N[C@H](C(=O)N[C@@H](C)C(=O)N[C@@H](Cc1c[nH]c2ccccc12)C(=O)N[C@@H](CC(C)C)C(=O)N[C@H](C(=O)N[C@@H](C)C(=O)NCC(=O)NCC(N)=O)C(C)C)C(C)C)C(=O)O
B2: g733 (peptide)
peptide: HGEGTFTSDYSKYK([γGlu-Palmitoyl])DSRRAQDFVQWLVAGG-NH2
modifications: N-terminus assumed
SMILES: CCCCCCCCCCCCCCCC(=O)N[C@@H](CCC(=O)NCCCC[C@H](NC(=O)[C@H](Cc1ccc(O)cc1)NC(=O)[C@H](CCCCN)NC(=O)[C@H](CO)NC(=O)[C@H](Cc1ccc(O)cc1)NC(=O)[C@H](CC(=O)O)NC(=O)[C@H](CO)NC(=O)[C@@H](NC(=O)[C@H](Cc1ccccc1)NC(=O)[C@@H](NC(=O)CNC(=O)[C@H](CCC(=O)O)NC(=O)CNC(=O)[C@@H](N)Cc1c[nH]cn1)[C@@H](C)O)[C@@H](C)O)C(=O)N[C@@H](CC(=O)O)C(=O)N[C@@H](CO)C(=O)N[C@@H](CCCNC(=N)N)C(=O)N[C@@H](CCCNC(=N)N)C(=O)N[C@@H](C)C(=O)N[C@@H](CCC(N)=O)C(=O)N[C@@H](CC(=O)O)C(=O)N[C@@H](Cc1ccccc1)C(=O)N[C@H](C(=O)N[C@@H](CCC(N)=O)C(=O)N[C@@H](Cc1c[nH]c2ccccc12)C(=O)N[C@@H](CC(C)C)C(=O)N[C@H](C(=O)N[C@@H](C)C(=O)NCC(=O)NCC(N)=O)C(C)C)C(C)C)C(=O)O
B3: g803 (peptide)
peptide: HSQGTFTSDYSKYK([γGlu-Palmitoyl])DSRSARDFVEWLVAGG-NH2
modifications: N-terminus assumed
SMILES: CCCCCCCCCCCCCCCC(=O)N[C@@H](CCC(=O)NCCCC[C@H](NC(=O)[C@H](Cc1ccc(O)cc1)NC(=O)[C@H](CCCCN)NC(=O)[C@H](CO)NC(=O)[C@H](Cc1ccc(O)cc1)NC(=O)[C@H](CC(=O)O)NC(=O)[C@H](CO)NC(=O)[C@@H](NC(=O)[C@H](Cc1ccccc1)NC(=O)[C@@H](NC(=O)CNC(=O)[C@H](CCC(N)=O)NC(=O)[C@H](CO)NC(=O)[C@@H](N)Cc1c[nH]cn1)[C@@H](C)O)[C@@H](C)O)C(=O)N[C@@H](CC(=O)O)C(=O)N[C@@H](CO)C(=O)N[C@@H](CCCNC(=N)N)C(=O)N[C@@H](CO)C(=O)N[C@@H](C)C(=O)N[C@@H](CCCNC(=N)N)C(=O)N[C@@H](CC(=O)O)C(=O)N[C@@H](Cc1ccccc1)C(=O)N[C@H](C(=O)N[C@@H](CCC(=O)O)C(=O)N[C@@H](Cc1c[nH]c2ccccc12)C(=O)N[C@@H](CC(C)C)C(=O)N[C@H](C(=O)N[C@@H](C)C(=O)NCC(=O)NCC(N)=O)C(C)C)C(C)C)C(=O)O
B4: g802 (peptide)
peptide: HSQGTFTSDYSEK([γGlu-Palmitoyl])LDSERARDFVAWLVAGG-NH2
modifications: N-terminus assumed
SMILES: CCCCCCCCCCCCCCCC(=O)N[C@@H](CCC(=O)NCCCC[C@H](NC(=O)[C@H](CCC(=O)O)NC(=O)[C@H](CO)NC(=O)[C@H](Cc1ccc(O)cc1)NC(=O)[C@H](CC(=O)O)NC(=O)[C@H](CO)NC(=O)[C@@H](NC(=O)[C@H](Cc1ccccc1)NC(=O)[C@@H](NC(=O)CNC(=O)[C@H](CCC(N)=O)NC(=O)[C@H](CO)NC(=O)[C@@H](N)Cc1c[nH]cn1)[C@@H](C)O)[C@@H](C)O)C(=O)N[C@@H](CC(C)C)C(=O)N[C@@H](CC(=O)O)C(=O)N[C@@H](CO)C(=O)N[C@@H](CCC(=O)O)C(=O)N[C@@H](CCCNC(=N)N)C(=O)N[C@@H](C)C(=O)N[C@@H](CCCNC(=N)N)C(=O)N[C@@H](CC(=O)O)C(=O)N[C@@H](Cc1ccccc1)C(=O)N[C@H](C(=O)N[C@@H](C)C(=O)N[C@@H](Cc1c[nH]c2ccccc12)C(=O)N[C@@H](CC(C)C)C(=O)N[C@H](C(=O)N[C@@H](C)C(=O)NCC(=O)NCC(N)=O)C(C)C)C(C)C)C(=O)O
B5: g729 (peptide)
peptide: HSQGTFTSDYSKK([γGlu-Palmitoyl])LDSERAQDFVQWLVAGG-NH2
modifications: N-terminus assumed
SMILES: CCCCCCCCCCCCCCCC(=O)N[C@@H](CCC(=O)NCCCC[C@H](NC(=O)[C@H](CCCCN)NC(=O)[C@H](CO)NC(=O)[C@H](Cc1ccc(O)cc1)NC(=O)[C@H](CC(=O)O)NC(=O)[C@H](CO)NC(=O)[C@@H](NC(=O)[C@H](Cc1ccccc1)NC(=O)[C@@H](NC(=O)CNC(=O)[C@H](CCC(N)=O)NC(=O)[C@H](CO)NC(=O)[C@@H](N)Cc1c[nH]cn1)[C@@H](C)O)[C@@H](C)O)C(=O)N[C@@H](CC(C)C)C(=O)N[C@@H](CC(=O)O)C(=O)N[C@@H](CO)C(=O)N[C@@H](CCC(=O)O)C(=O)N[C@@H](CCCNC(=N)N)C(=O)N[C@@H](C)C(=O)N[C@@H](CCC(N)=O)C(=O)N[C@@H](CC(=O)O)C(=O)N[C@@H](Cc1ccccc1)C(=O)N[C@H](C(=O)N[C@@H](CCC(N)=O)C(=O)N[C@@H](Cc1c[nH]c2ccccc12)C(=O)N[C@@H](CC(C)C)C(=O)N[C@H](C(=O)N[C@@H](C)C(=O)NCC(=O)NCC(N)=O)C(C)C)C(C)C)C(=O)O
B6: g842 (peptide)
peptide: HSQGTFTSDYSRK([γGlu-Palmitoyl])LDSERARDFVAWLVAGG-OH
modifications: N-terminus assumed
SMILES: CCCCCCCCCCCCCCCC(=O)N[C@@H](CCC(=O)NCCCC[C@H](NC(=O)[C@H](CCCNC(=N)N)NC(=O)[C@H](CO)NC(=O)[C@H](Cc1ccc(O)cc1)NC(=O)[C@H](CC(=O)O)NC(=O)[C@H](CO)NC(=O)[C@@H](NC(=O)[C@H](Cc1ccccc1)NC(=O)[C@@H](NC(=O)CNC(=O)[C@H](CCC(N)=O)NC(=O)[C@H](CO)NC(=O)[C@@H](N)Cc1c[nH]cn1)[C@@H](C)O)[C@@H](C)O)C(=O)N[C@@H](CC(C)C)C(=O)N[C@@H](CC(=O)O)C(=O)N[C@@H](CO)C(=O)N[C@@H](CCC(=O)O)C(=O)N[C@@H](CCCNC(=N)N)C(=O)N[C@@H](C)C(=O)N[C@@H](CCCNC(=N)N)C(=O)N[C@@H](CC(=O)O)C(=O)N[C@@H](Cc1ccccc1)C(=O)N[C@H](C(=O)N[C@@H](C)C(=O)N[C@@H](Cc1c[nH]c2ccccc12)C(=O)N[C@@H](CC(C)C)C(=O)N[C@H](C(=O)N[C@@H](C)C(=O)NCC(=O)NCC(=O)O)C(C)C)C(C)C)C(=O)O
B7: g820 (peptide)
peptide: HSQGTFTSDYSRK([γGlu-Palmitoyl])LDSERARDFVAWLVAGG-NH2
modifications: N-terminus assumed
SMILES: CCCCCCCCCCCCCCCC(=O)N[C@@H](CCC(=O)NCCCC[C@H](NC(=O)[C@H](CCCNC(=N)N)NC(=O)[C@H](CO)NC(=O)[C@H](Cc1ccc(O)cc1)NC(=O)[C@H](CC(=O)O)NC(=O)[C@H](CO)NC(=O)[C@@H](NC(=O)[C@H](Cc1ccccc1)NC(=O)[C@@H](NC(=O)CNC(=O)[C@H](CCC(N)=O)NC(=O)[C@H](CO)NC(=O)[C@@H](N)Cc1c[nH]cn1)[C@@H](C)O)[C@@H](C)O)C(=O)N[C@@H](CC(C)C)C(=O)N[C@@H](CC(=O)O)C(=O)N[C@@H](CO)C(=O)N[C@@H](CCC(=O)O)C(=O)N[C@@H](CCCNC(=N)N)C(=O)N[C@@H](C)C(=O)N[C@@H](CCCNC(=N)N)C(=O)N[C@@H](CC(=O)O)C(=O)N[C@@H](Cc1ccccc1)C(=O)N[C@H](C(=O)N[C@@H](C)C(=O)N[C@@H](Cc1c[nH]c2ccccc12)C(=O)N[C@@H](CC(C)C)C(=O)N[C@H](C(=O)N[C@@H](C)C(=O)NCC(=O)NCC(N)=O)C(C)C)C(C)C)C(=O)O

Numbered stars: 1 amine (or outer) side, 2 acyl side, 3 side chain; on linkers, the order of the positions; unused ones are H or OH. Side chains are listed from the residue outwards. Ends that are not written are not given here. * marks the point of attachment. γGlu = O=C(O)[C@H](CCC(=O)[*:2])N[*:1]; Palmitoyl = CCCCCCCCCCCCCCCC(=O)*

The first experiment deals with T1, human glucose-dependent insulinotropic peptide (gastric inhibitory polypeptide) receptor (human). The experiment is described as follows: cell-based or functional assay.
The molecule B1 displayed a cAMP EC50 (assay 1) of 395000 pM.

Take B2: the cAMP EC50 (assay 1) is 817000 pM.

Consider B3, for which the cAMP EC50 (assay 1) was determined as 32900 pM.

For the molecule B4, the cAMP EC50 (assay 1) came to 91200 pM.

For the molecule B5, the cAMP EC50 (assay 1) was found to be 209000 pM.

Molecule B6 returned a cAMP EC50 (assay 1) of 88300 pM.

For the molecule B7, the cAMP EC50 (assay 1) was 71100 pM.

For a further experiment, the target named is human GLP-1 receptor (human, UniProt P43220 24-463). The experiment is described as follows: cell-based or functional assay.
human GLP-1 receptor, sequence (P43220 24-463): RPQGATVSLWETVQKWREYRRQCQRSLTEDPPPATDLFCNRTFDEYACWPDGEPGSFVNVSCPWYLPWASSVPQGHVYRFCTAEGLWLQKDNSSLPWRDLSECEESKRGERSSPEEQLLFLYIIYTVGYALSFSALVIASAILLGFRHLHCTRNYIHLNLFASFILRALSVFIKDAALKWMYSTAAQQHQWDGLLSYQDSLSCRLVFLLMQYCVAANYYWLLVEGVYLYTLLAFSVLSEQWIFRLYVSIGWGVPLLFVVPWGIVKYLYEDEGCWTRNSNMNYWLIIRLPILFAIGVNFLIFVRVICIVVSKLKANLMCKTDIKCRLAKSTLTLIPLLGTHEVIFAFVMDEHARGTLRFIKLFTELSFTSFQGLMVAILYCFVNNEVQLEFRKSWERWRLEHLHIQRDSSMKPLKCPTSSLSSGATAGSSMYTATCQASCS
As for B1, the cAMP EC50 (assay 1) was determined as 169 pM.

Molecule B2 came in with a cAMP EC50 (assay 1) of 23.1 pM.

As for B3, the cAMP EC50 (assay 1) is 29.6 pM.

B4 showed a cAMP EC50 (assay 1) of 96.4 pM.

In turn, B5 displayed a cAMP EC50 (assay 1) of 72.9 pM.

Molecule B6 gave a cAMP EC50 (assay 1) of 51.2 pM.

On to B7, for which the cAMP EC50 (assay 1) came to 33.9 pM.

A further experiment deals with human glucagon receptor (human, UniProt P47871 26-477). The experiment is described as follows: cell-based or functional assay.
human glucagon receptor, sequence (P47871 26-477): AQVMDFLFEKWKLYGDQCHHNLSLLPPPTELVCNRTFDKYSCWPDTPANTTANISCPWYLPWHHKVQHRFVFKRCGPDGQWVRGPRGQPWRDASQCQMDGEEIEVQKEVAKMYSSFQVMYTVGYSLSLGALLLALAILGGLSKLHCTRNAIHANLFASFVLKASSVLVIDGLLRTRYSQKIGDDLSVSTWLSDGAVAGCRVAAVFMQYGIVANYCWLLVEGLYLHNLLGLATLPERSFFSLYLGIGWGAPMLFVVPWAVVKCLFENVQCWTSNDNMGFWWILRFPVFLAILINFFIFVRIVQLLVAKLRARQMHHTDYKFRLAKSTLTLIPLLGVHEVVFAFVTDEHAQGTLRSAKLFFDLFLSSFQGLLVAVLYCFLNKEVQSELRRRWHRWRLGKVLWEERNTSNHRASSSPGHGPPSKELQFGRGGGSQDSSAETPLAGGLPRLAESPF
B1 registered a cAMP EC50 (assay 1) of 2440 pM.

Molecule B2 registered a cAMP EC50 (assay 1) of 62000 pM.

Take B3: the cAMP EC50 (assay 1) was 10.8 pM.

In the case of B4, the cAMP EC50 (assay 1) amounted to 1810 pM.

As to B5, the cAMP EC50 (assay 1) worked out at 31.9 pM.

With B6, the cAMP EC50 (assay 1) was determined as 8.31 pM.

The molecule B7 came in with a cAMP EC50 (assay 1) of 11.7 pM.
